Assay: protease stability score; higher = more stable; yeast display proteolysis, trypsin and chymotrypsin;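 note: relative to predicted unfolded state with 0 unfolded-like and 1 meaning tenfold more protease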

Row | Sequence | protease stability score
1 | SEDDQLVRELMRRIMKNIMTGDEEKHLNLVDPHARTIFDGREYHGRELYTMVFRILYNRIDHWTDLKVEHVSIYDGVIEIHVRADVDINGKRTEITMIIFVNKVNGRWIIEYVVYS | 1.37
2 | SEDDRDAEKMSKDWIHLMLTGDEDHLRELLDPNVRMEQGDKEFIGRELLVEVFSRTVKHLGIKHIQLEESRTNVQGEKVIVILIMDYRAENRRVEFHIHLIVDKVNGRWLVQSVRFRFK | 1.25
3 | SEDDRDANNMREILQHLWFTGNEEEFLRLLDPDTLFHVNGQQKVGRERVEELLHHLLEKLGADHEEIHDWEVRLQGDKLDIHVHIRLIIGDKEFRIHIDFHIYKIDGRWRIHSVKLEIK | 2.1
4 | SEDDRDSKEAKHLLHELIRTGDEDELVKLLDPNMIIIVGDKEYIGWEQAVRLLRELNRRFDHVELRFRDIEIQGEWVDTDIELIYRFDGRETRIDTRFIAYKVDGRWFNHHIEIK | 0.582
5 | SEDDRENHRFMEQFLHDWETGDEDSLRKLADPDVKVRINGVDLHGWSFFEDYLRRVDHIDDFKIDHVEIQGDKIKIHGQQHGRIDGRRDTYKVQNFFIKIDGKWRLKMVINR | 1.34
6 | SEDDSDLEEYLRLWVKAWMTGDEDLLRTLLDPHTRFQSHVNGKEVERHGMEVVSHWLRKFKNIRFEVHHVHVVNGVLYHETRVKFDGVRIETELNAIVVDGKNKFLNIHIK | 0.299
7 | SEDEDAFNELLKIHVEALHTGDWRSIRELLDPNARVRIDGKEYVGRESVEEHLRRIKNLTIHEIRIDDIRIQGDYVHVDGHVRGHFNGQEELHHVEFIMLKVNGRWRIKEIRIK | 2.26
8 | SEDEDELKEWIRIIIHLLTTGNEDLIENNADPNVRIEFNGKTYHGMEDFHEWMRYAINELRFHDFRLDSFRIVNGKVDLNTTLIGNINGVLTRRETRMIIIKVNGRWLIHALVFK | 1.75
9 | SEDEDFAKKWTDEILTAFLTGDWKLLSDLVDPNVRVIYGEFHFHGREQTIKWLEHHYREIRIHDYKIKHIEVQGEKVIVDGEVDRHYNGRRHRIHTEIIIIIFNGVIREIEFREN | 2.05
10 | SEDEDFMQKALKHDWELWETGDEEKIQKQADPHVRMDFDGVEYHGMELFSELLDRYLRKVKGLQIRLRHVHVKIINGQAIMDIDGTVNINGREIRLHIKIFNEKINGKWIHSSIRFEFR | 1.21
11 | SEDEDHARLMFELLLRMITTGDEESLRELVDPNVRVSVDGVDLHGWDSLSKFLKHIRIRVDHSEMHDMRVIDGVLQANTHMQITVEFNGRRVQRQVETRVEVVKINGKWAIHRFSVH | 2.55
12 | SEDEDIAKEILRLLLEALRTGDWHTVHRLMDPHARVHVNGRDFIGMEEVLRWLEEFLRHMRLRSLTVHDIRIFDGRLHVDSRSDVEIDGRRISIETEVIILKVDGRWHVKSIIFR | 1.36
13 | SEDEDISRNFLELEWKKHMTGDWRTFAENIDPNARVDIDGVEFHGRELISRLMHEKIRKHGVKIKHLHIDHVSSQGDKIHINTTLVGLFNGRDTHLEVHIVITKINGRWVLQEFHFD | 0.591
14 | SEDEDLFHHVLHVWLNAMETGDFEVFKHLLDPRTKEHQGDKHLIGREDALRKFREEWEKYPNMRVEIRVDDWDIQGNKIRAKVHIIIRQGDKTYSVEIDLIMVKVNGRWFIHSIIIH | 0.966
15 | SEDEDLSRHLSELWLDALRTGDEKSTHKMADPHTRVEVGDKTDHGMEVWNRIFERFKGARLEITEWRTIGEKVHYHMHIEYGDKHVDVEIEIIQINGQVKEFIIRVRIK | 0.249
16 | SEDEDNMHEFFRIWSRVQETGDEEAMLKLMDPNVRTDINGVELHGREEFEKELHRLIFEWGFDRFVVHIEHEDIFNGRIHVRSRVIYGDKEVHVIIHVYKVNGQWRVEELRFE | 1.41
17 | SEDEEAAHRFLQMFLSTSHTGDEKESRELADPHVRIDIDGQKHHGRHEWVKVFRHLRIHNIEIKDYHVIDGRLRLDYKVDLEVGDKKIEHRLHIDVEKIDGRWEIQRVHLI | 1.58
18 | SEDEEAAHWLTLVLIELFRTGDEDSFTKLLDPNARMHVGDKDFHGRHHILHWILHFLRELGVDHRDMKVEDQHFYDGRLELHVTIIIIVGDKKIRIESHFYVEKVNGRWLVKKIHIH | 1.41
19 | SEDEEAAKHMFELLVHHIETGDEESLRKLLDPNVRMDIDGRIIHGREIFARQMFLESLHIRTEFRLKHVDTIGEKLHLFTEVTYKINGVHIKRDTRVIILKVDGRWVFHSIRFE | 0.951
20 | SEDEEAAKRLTDLLIHNWETGNEDELHRLIDPNMREDVNGKEFHGWSYMVHFLRRIDHVFSHITIHDIKSVGDYVYIDGTVDEIFHIGDSKIRINIRVTIIILKINGRWIMTHVHVK | 1.32
21 | SEDEEAIERFLREFVKAERTGDEKTILSLMDPHVRIHQGDWEVHGRDDLRHFFHRIDHVRSRFHLTHVDHQGDKAIFKGTVEYHIHVDGKDIHSTSSVDIHVRKINGRWLMHNVHIE | 1.63
22 | SEDEEAIRHALRIFEEVLQTGDEHSIENLFDPNTRIDINGKHLHGWHKLEEWLSRFDHLEVHVHIHSSNVFDGRIHNDTRVKMHLYINGKIIELHQETHIISKKVNGRWYVKMIIIR | 1.17
23 | SEDEEALKKAIDLLFESLLTGDERELEKLADPNYRMEVNGKEIHGRELFSKTMIDILQRLGIDHIDFRIEHDETQGDKVIIEGKLIFKVGDKHIEIKSRLIVLKVDGQWILRHSRMH | 2.05
24 | SEDEEASKEMLERLIESIKTGDWRHDSNMVDPHARFRVGDKEFHGRDDLEHLVKHLGIKHVEVQHVRTYGNKMELHGWERFNGREVRVELHFVKIDGQWVLTEYRVR | 0.616
25 | SEDEEAVHKMLEMWIKHINTGDERHLHKLADPNYRVEQGDKELHGRHAYEYVFHQFDHWKEIRIEEVKTYDGRVKIKGREVYHINGQEIESEVRIITTKVDGQWHLKSILFK | 0.525

Source: the NTF2 design screens of Basanta et al. (2020)
